Source: US20250092136A1 (Hoffmann-La Roche, published 2025)

Tests used:
Streptavidin [1] = target: T1, Streptavidin (UniProt P22629 37-163, limits assumed); assay: polyreactivity ELISA, coated antigen
Protocol: (§1) Polyreactivity was tested using an ELISA-based read out. A set of different antigens depicted in Table 9 was coated on a Nunc MaxiSorp microtiter plate (Fisher Scientific) overnight at 4° C. with a concentration of 1 μg/ml in Dulbecco's phosphate buffered saline (DPBS, PAN Biotech #P04-36500) each. After washing the plate two times using PBS (Roche Diagnostics #11666789001) containing 0.1% Tween-20, plates were blocked with DPBS, 2% bovine serum albumin (BSA, Roche Diagnostics #10735108001) for 1 hour at room temperature. After washing the plate three times, the HER2 TCBs were added with a concentration of 1 μg/ml diluted in DPBS and incubated for 1 hour at room temperature. Subsequently, plates were washed three times and an anti-human IgG F(ab′)2-HRP (Jackson ImmunoResearch #109-036-006) diluted 1:5000 in PBS, 0.5% BSA, 0.05% Tween-20 was added. After incubation for 1 hour at room temperature and washing for four times, TMB substrate (Sigma-Aldrich #T0440) was added and absorption was measured at 370/492 nm.

Bovine Serum Albumin [2] = target: T2, Bovine Serum Albumin (bovine, UniProt P02769 25-607); assay: polyreactivity ELISA, coated antigen
T2 construct: also called BSA
Protocol: as §1

Histone H4 aa2-24 [3] = target: T3, Histone H4 aa2-24 (UniProt P62805 2-24); assay: polyreactivity ELISA, coated antigen
T3 construct: range 2-24
Protocol: as §1

Streptavidin [4] = target: T1, Streptavidin; assay: polyreactivity ELISA, coated antigen 1 µg/ml, TCB 1 µg/ml
Protocol: as §1

Hemocyanin = assay: as above
Protocol: as §1

Bovine Serum Albumin [5] = target: T2, Bovine Serum Albumin; assay: as above
Protocol: as §1

Insulin = assay: as above
Protocol: as §1

Apolipoprotein A-1 = assay: as above
Protocol: as §1

HSP90 = assay: as above
Protocol: as §1

Gelatine (2%) = assay: as above
Protocol: as §1

[6] = target: human CD3ε (coated antigen of the polyreactivity ELISA) (human, UniProt P07766 23-126, limits assumed); assay: as above
Protocol: as §1

Histone H4 aa2-24 [7] = target: T3, Histone H4 aa2-24; assay: as above
Protocol: as §1

[8] = target: T4, Biotinylated human CD3ε stalk-Fc (knob)-Avi / CD3δ stalk-Fc (hole) (human, biotinylated); assay: SPR (Biacore T200), biotinylated CD3ε/δ-Fc on SA chip, TCB as analyte, 25 °C, 1:1 fit
T4 construct: also called human CD3ε/δ
Protocol: (§2) CD3 binding was investigated using surface plasmon resonance (SPR) on a Biacore T200 instrument (Cytiva). All experiments were performed at 25° C. using HEPES buffered saline (20 mM HEPES, 140 mM NaCl, 0.05% PS-20) pH 7.4. The experimental setup is schematically depicted in FIG. 3.
(§3) Biotinylated human and cynomolgus CD3ε stalk-Fc (knob)-Avi/[…] stalk-Fc (hole) (CD3E/8, see SEQ ID NOs 49 and 50 (human) and SEQ ID NOs 51 and 52 (cynomolgus)) were coupled to a Series S Sensor Chip SA (Cytiva, #29104992) according to the manufacturer's instructions. A concentration series ranging from 0.37 to 300 nM (1:3) of the TCB antibody molecules were injected with 90 s association time, followed by a buffer wash of 300 s for monitoring the dissociation phase. Bulk refractive index differences were corrected by subtracting the response obtained from a mock surface. Blank injections were subtracted (double referencing). Kinetic constants were derived using the Biacore T200 Evaluation Software (Cytiva), to fit rate equations for 1:1 Langmuir binding by numerical integration. The half-life (t_{1/2}) of the interaction was calculated using the formula t_{1/2}=ln2/koff.

[9] = target: T5, Biotinylated cynomolgus CD3ε stalk-Fc (knob)-Avi / CD3δ stalk-Fc (hole) (cynomolgus, biotinylated); assay: as above
T5 construct: Heterodimer of CD3 epsilon and CD3 delta ectodomains fused to Fc knob/hole; also called cynomolgus CD3ε/δ; cyno CD3
Protocol: as §2, §3

[10] = target: T6, Human CD3 on Jurkat NFAT reporter cells (human, UniProt P07766 23-207); assay: flow cytometry on CD3-expressing Jurkat NFAT reporter cells, PE-conjugated anti-human IgG Fc secondary antibody, median fluorescence intensity
T6 construct: CD3 complex on the cell surface; also called CD3 on Jurkat cells; CD3 antigen (expressed on Jurkat-NFAT reporter cells)
Protocol: The antibody staining was performed in a 96-well round bottom plate. Therefore 200′000 cells were seeded per well.

T5 sequence (chain, as listed by the source mutant limits assumed, chain 1 of 2): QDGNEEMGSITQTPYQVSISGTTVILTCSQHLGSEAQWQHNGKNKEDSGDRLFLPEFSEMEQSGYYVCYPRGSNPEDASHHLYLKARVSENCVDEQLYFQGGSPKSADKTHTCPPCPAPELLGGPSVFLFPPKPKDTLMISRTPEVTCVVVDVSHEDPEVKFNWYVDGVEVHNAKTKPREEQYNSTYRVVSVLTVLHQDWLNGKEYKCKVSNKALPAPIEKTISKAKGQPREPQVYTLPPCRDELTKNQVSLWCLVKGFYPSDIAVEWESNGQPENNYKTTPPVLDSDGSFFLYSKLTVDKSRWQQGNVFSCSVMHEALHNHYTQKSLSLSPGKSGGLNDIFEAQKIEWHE
T5 sequence (chain, as listed by the source mutant limits assumed, chain 2 of 2): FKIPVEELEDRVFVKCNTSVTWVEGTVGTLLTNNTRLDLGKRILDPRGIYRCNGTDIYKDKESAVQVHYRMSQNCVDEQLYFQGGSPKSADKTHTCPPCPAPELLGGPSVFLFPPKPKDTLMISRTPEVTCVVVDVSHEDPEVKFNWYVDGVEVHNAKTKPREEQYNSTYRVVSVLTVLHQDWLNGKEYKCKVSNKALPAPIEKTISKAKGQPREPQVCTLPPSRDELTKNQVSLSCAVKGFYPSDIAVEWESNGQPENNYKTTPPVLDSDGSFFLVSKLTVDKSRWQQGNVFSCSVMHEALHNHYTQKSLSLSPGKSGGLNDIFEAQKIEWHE
T1 sequence (P22629 37-163 limits assumed): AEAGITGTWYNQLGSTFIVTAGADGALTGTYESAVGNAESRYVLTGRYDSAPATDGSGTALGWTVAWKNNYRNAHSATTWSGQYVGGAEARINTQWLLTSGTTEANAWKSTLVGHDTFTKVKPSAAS
Apolipoprotein A-1, sequence (P02647 25-267): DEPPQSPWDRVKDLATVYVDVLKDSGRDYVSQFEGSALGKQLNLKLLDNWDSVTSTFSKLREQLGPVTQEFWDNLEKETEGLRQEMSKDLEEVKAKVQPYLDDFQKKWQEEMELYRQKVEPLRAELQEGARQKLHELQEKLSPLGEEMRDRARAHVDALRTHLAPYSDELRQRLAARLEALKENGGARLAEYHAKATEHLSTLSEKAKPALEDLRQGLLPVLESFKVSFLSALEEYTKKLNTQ
T4 sequence (chain, as listed by the source mutant limits assumed, chain 1 of 2): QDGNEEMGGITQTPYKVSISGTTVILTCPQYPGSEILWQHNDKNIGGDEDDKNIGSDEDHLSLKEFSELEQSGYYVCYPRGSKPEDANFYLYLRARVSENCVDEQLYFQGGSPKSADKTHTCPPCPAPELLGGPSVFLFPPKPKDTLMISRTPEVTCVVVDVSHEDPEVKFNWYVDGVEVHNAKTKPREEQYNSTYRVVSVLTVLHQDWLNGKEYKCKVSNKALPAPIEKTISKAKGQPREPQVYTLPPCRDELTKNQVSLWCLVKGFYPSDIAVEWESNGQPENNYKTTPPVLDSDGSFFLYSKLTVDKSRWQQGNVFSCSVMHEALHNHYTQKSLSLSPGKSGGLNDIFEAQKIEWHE
T4 sequence (chain, as listed by the source mutant limits assumed, chain 2 of 2): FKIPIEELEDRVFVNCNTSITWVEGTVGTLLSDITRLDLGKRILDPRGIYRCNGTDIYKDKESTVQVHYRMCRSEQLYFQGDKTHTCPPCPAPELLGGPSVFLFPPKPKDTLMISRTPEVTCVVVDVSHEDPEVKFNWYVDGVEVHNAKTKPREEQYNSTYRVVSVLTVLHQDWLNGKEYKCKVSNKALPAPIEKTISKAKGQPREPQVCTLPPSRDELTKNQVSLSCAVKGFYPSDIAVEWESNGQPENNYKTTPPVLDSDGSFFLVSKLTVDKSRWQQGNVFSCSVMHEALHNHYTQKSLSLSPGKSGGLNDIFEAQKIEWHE
human CD3ε (coated antigen of the polyreactivity ELISA), sequence (P07766 23-126 limits assumed): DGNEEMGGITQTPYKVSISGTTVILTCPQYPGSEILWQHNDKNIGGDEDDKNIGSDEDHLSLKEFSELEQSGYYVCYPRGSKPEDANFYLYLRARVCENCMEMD
T2 sequence (P02769 25-607 limits assumed): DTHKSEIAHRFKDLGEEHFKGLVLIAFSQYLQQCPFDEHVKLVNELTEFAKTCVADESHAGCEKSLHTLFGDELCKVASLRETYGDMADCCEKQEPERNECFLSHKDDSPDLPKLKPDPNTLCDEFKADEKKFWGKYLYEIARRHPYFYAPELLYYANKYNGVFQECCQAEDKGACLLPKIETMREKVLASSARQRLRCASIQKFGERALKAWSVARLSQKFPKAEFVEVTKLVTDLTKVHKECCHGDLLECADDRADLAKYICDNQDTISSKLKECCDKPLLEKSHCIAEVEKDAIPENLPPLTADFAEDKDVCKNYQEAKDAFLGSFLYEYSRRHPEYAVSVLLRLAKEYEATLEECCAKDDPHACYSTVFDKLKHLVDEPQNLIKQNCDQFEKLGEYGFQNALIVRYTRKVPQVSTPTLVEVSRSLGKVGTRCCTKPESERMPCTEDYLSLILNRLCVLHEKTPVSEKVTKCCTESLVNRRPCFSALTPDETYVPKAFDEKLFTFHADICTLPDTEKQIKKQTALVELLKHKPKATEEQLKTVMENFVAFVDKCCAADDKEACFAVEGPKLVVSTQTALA
T6 sequence (P07766 23-207 limits assumed): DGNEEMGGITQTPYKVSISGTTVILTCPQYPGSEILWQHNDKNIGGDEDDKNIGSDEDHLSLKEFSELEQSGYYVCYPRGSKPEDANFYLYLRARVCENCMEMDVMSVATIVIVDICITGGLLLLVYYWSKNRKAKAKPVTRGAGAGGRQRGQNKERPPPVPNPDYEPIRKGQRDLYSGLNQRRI

Binder	binding result (Streptavidin [1])	binding result (Bovine Serum Albumin [2])	binding result (Histone H4 aa2-24 [3])	Absorbance (OD) (Streptavidin [4])	Absorbance (OD) (Hemocyanin)	Absorbance (OD) (Bovine Serum Albumin [5])	Absorbance (OD) (Insulin)	Absorbance (OD) (Apolipoprotein A-1)	Absorbance (OD) (HSP90)	Absorbance (OD) (Gelatine (2%))	Absorbance (OD) [6] [OD]	Absorbance (OD) (Histone H4 aa2-24 [7])	Kd [8] [nM]	t1/2 [8] [s]	Kd [9] [nM]	t1/2 [9] [s]	EC50 (read off the curve) [10] [nM]
HER2-TCB containing the parental CD3 binder P1AH4929 / CD3orig (bispecific antibody, human IgG1, kappa, L234A L235A, 2+1 IgG CrossFab, inverted: VH/VL exchange in the CD3 Fab, charge modifications in the two HER2 Fabs, knob-into-hole and P329G LALA in the Fc; also called PIAH4929) heavy 1: not shown heavy 2: not shown light 1: EVQLLESGGGLVQPGGSLRLSCAASGFTFSSYAMNWVRQAPGKGLEWVSRIRSKYNNYATYYADSVKGRFTISRDDSKNTLYLQMNSLRAEDTAVYYCVRASNFPASYVSYFAYWGQGTLVTVSSASVAAPSVFIFPPSDEQLKSGTASVVCLLNNFYPREAKVQWKVDNALQSGNSQESVTEQDSKDSTYSLSSTLTLSKADYEKHKVYACEVTHQGLSSPVTKSFNRGEC light 2: not shown	no binding (tested: 1 µg/ml)	no binding (tested: 1 µg/ml)	no binding (tested: 1 µg/ml)	0	0.02	0	0.01	0	0.02	-0.01	2.87	0.05	0.2	529	0.2	519	~6
HER2-TCB containing the optimized CD3 binder P1AI7913 (bispecific antibody, human IgG1, kappa, L234A L235A, 2+1 IgG CrossFab, inverted: VH/VL exchange in the CD3 Fab, charge modifications in the two HER2 Fabs, knob-into-hole and P329G LALA in the Fc; also called P1AI7913 (in TCB format)) heavy 1: not shown heavy 2: not shown light 1: EVQLLESGGGLVQPGGSLRLSCAASGFTFSSYAMNWVRQAPGKGLEWVGRVRTKYNNREPYYADSVKGRFTISRDDSKNTLYLQMNSLRAEDTAVYYCVRASNFPASYVSYFAYWGQGTLVTVSSASVAAPSVFIFPPSDEQLKSGTASVVCLLNNFYPREAKVQWKVDNALQSGNSQESVTEQDSKDSTYSLSSTLTLSKADYEKHKVYACEVTHQGLSSPVTKSFNRGEC light 2: not shown	no binding (tested: 1 µg/ml)	no binding (tested: 1 µg/ml)	no binding (tested: 1 µg/ml)	0.01	0.07	0.01	0.04	0.01	0.03	0.01	2.83	0.06	1.5	81	1.3	81	
HER2-TCB containing the optimized CD3 binder P1AI7912 (bispecific antibody, human IgG1, kappa, L234A L235A, 2+1 IgG CrossFab, inverted: VH/VL exchange in the CD3 Fab, charge modifications in the two HER2 Fabs, knob-into-hole and P329G LALA in the Fc; also called P1AI7912 (in TCB format)) heavy 1: not shown heavy 2: not shown light 1: EVQLLESGGGLVQPGGSLRLSCAASGFTFSSYAMNWVRQAPGKGLEWVGRVRTTYNNREPYYADSVKGRFTISRDDSKNTLYLQMNSLRAEDTAVYYCVRASNFPASYVSYFAYWGQGTLVTVSSASVAAPSVFIFPPSDEQLKSGTASVVCLLNNFYPREAKVQWKVDNALQSGNSQESVTEQDSKDSTYSLSSTLTLSKADYEKHKVYACEVTHQGLSSPVTKSFNRGEC light 2: not shown	no binding (tested: 1 µg/ml)	no binding (tested: 1 µg/ml)	no binding (tested: 1 µg/ml)	0	0.02	0	0.02	0.01	0.07	-0.01	2.2	0	12.6	11	11.3	11	
HER2-TCB containing the optimized CD3 binder P1AI7915 (bispecific antibody, human IgG1, kappa, L234A L235A, 2+1 IgG CrossFab, inverted; also called P1AI7915 (in TCB format)) heavy 1: not shown heavy 2: not shown light 1: EVQLLESGGGLVQPGGSLRLSCAASGFTFSSYAMNWVRQAPGKGLEWVGRQRTQYNNREDYYADSVKGRFTISRDDSKNTLYLQMNSLRAEDTAVYYCVRASNFPASYVSYFAYWGQGTLVTVSSASVAAPSVFIFPPSDEQLKSGTASVVCLLNNFYPREAKVQWKVDNALQSGNSQESVTEQDSKDSTYSLSSTLTLSKADYEKHKVYACEVTHQGLSSPVTKSFNRGEC light 2: not shown	no binding (tested: 1 µg/ml)	no binding (tested: 1 µg/ml)	no binding (tested: 1 µg/ml)	0	0.08	0.01	0.04	0.01	0.07	0.01	2.99	0.07	11.5	30	9.7	31	
